The results in this text go back to the nanobody polyreactivity screen of Harvey et al. (2022).

This data set is described as follows: yeast display, Sf9 membrane polyspecificity reagent, FACS + sequencing; frameworks hold sequencing errors. Summed up: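 After 36–48 hours of galactose induction, yeast (Saccharomyces cerevisiae BJ5465) displaying a synthetic nanobody library were stained at 4 °C for 1 hour with 10% biotinylated, detergent-solubilized Sf9 membrane reagent. Streptavidin microbeads enriched the stained cells before FACS sorting into low and high (top ~1%) gates on anti-HA and streptavidin fluorescence. Each clone's polyreactivity label reflects its gate of origin.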
Turning to “QVQLVESGGGLVQAGGSLRLSCAASGSTFVPNAMGWYRQAPGKERELVAAITVDGDDTYYADSVKGRFTISRDNAKNTVYLQMNSLKPEDTAVYYCAAEQDPWTSRYVFFASRYDYWGQGTQVTVSS”, the “polyreactivity (PSR sort gate)” value is listed as “low polyreactivity”.

For the sequence “QVQLVESGGGLVQAGGSLRLSCAASGSTFVPNAMGWYRQAPGKERELVATINYADSVKGRFTISRDNAKNTVYLQMNSLKPEDTAVYYCATETAVYLVWGTALDYWGQGTQVTVSS”, the “polyreactivity (PSR sort gate)” value is recorded as “low polyreactivity”. For “QVQLVESGGGLVQAGGSLRLSCAASGSTFVPNAMGWYRQAPGTERELVAAITVDGDDTYYADSVKGRFTISRDNAKNTVYFQMNSLKPEVTAVYYCKADPDVPFFSWLTGRGTYDYWGQGTQVTVSS”, the “polyreactivity (PSR sort gate)” value is reported as “low polyreactivity”. As for “QVQLVESGGGLVQAGGSLRLSCAASGSTFVPNDMGGYRQAPGKERELVAAISYSGGSTYYADSVKGRFTISRDNAKNTVYLQMNSLKPEDTAVYYCAADKYLGELDYWGQGTQVTVSS”, the “polyreactivity (PSR sort gate)” value is recorded as “low polyreactivity”. For “QVQLVESGGGLVQAGGSLRLSCAASGSTFVPNDMGWYRQAPGKERELVAAISYSGGSTYYADSVKGRFTISRDNAKNTVYLQMNSLKPEDTAVYYCAAEKYLGELDYWGQGTQVTVSS” the value was “low polyreactivity”; for “QVQLVESGGGLVQAGGSLRLSCAASGSTFVPNTMGWYRQAPGKERELVADITYSGGSTYYADSVKGRFTISRDNAKNTVYLQMNSLKPEDTAVYYCAAEGTTWYYDMDYWGQGTQVTVSS”, “low polyreactivity”; for “QVQLVESGGGLVQAGGSLRLSCAASGSTFVPYPMGWYRQAPGKERELVAAISSTGGSTYYADSVKGRFTISRDNAKNTVYLQMNSLKPEDNAVYYCNALAKIRYGQINKGYYRGQGTQVTVSS”, “high polyreactivity”.

Turning to “QVQLVESGGGLVQAGGSLRLSCAASGSTFVQYTMGWYRQAPGKERELVAVITGGDGSTYYADSVKGRFTISRDNAKNTVYLLMNSLKPEDTAVYYCNADVYDYLRGGYEFDYWGQGTQVTVSS”, the “polyreactivity (PSR sort gate)” value was “low polyreactivity”. On to “QVQLVESGGGLVQAGGSLRLSCAASGSTFVRNAMGWYRQAPGKERELVAAISGSGSRTYYADSVKGRFTISRDNAKNTVYLQMNSLKPEDTAVYYCAARITAHEYDYWGQGTQVTVSS”, for which the “polyreactivity (PSR sort gate)” value was “high polyreactivity”. Turning to “QVQLVESGGGLVQAGGSLRLSCAASGSTFVRNAMGWYRQAPGKERELVAAISTRGGSTSYADSVKGRFTISRDNAKNTVYLQMNCLKPEDTAVYYCAKVHAYSQGIRHGYWGQGTQVTVSS”, the “polyreactivity (PSR sort gate)” value is “low polyreactivity”. For the sequence “QVQLVESGGGLVQAGGSLRLSCAASGSTFVRNAMGWYRQAPGKERELVAGISTGDKTYYADSVKGRFTISRDNAKNTVYLQMNSLKPEDTAVYYCAASVGTYQTATLDYDSWGQGTQVTVSS”, the “polyreactivity (PSR sort gate)” value is “low polyreactivity”. For “QVQLVESGGGLVQAGGSLRLSCAASGSTFVRNAMGWYRQAPGKERELVAGISTGDNTYYADSVKGRFTISRDNAKNTVYLQMNSLKPEDTAVDYCNATKDFSFGLDYWGQGTQVTVSS” the value was “low polyreactivity”; for “QVQLVESGGGLVQAGGSLRLSCAASGSTFVRNAMGWYRQPPGKDRELVAAISWRGGSTYYADTVKGRFTISRDNAKNTVYLQMNSLKPEDTAVYYCNKVGTWQGPYDYWGQGTQVTVSS”, “high polyreactivity”. In the case of “QVQLVESGGGLVQAGGSLRLSCAASGSTFVRYAMGWYRQAPGKERELVAAIRGGGGTYYADSVKGRFTISRDNAKNTVYLQMNSLKPVDTAVYYCAADTYYYYWFAGYTEYDYWGQGTQVTVSS”, the “polyreactivity (PSR sort gate)” value is “low polyreactivity”. For “QVQLVESGGGLVQAGGSLRLSCAASGSTFVSNAMGWDRQAPGKERELVAAISSSGGRTSYADSEKGRFTISRDNAKNTVYLQMTSPKPEDTAVYYCAARFKSVDYVQYYYWGQGTQVTVSS”, the “polyreactivity (PSR sort gate)” value is “low polyreactivity”. For “QVQLVESGGGLVQAGGSLRLSCAASGSTFVSNAMGWYRQAPGKERELVAAISKGDGNTYYADSVKGRFTISRDNAKNTVYLQMNSLKPEDTAVYYCAATYHYYSRWYDYWGQGTQVTVSS” the value was “high polyreactivity”; for “QVQLVESGGGLVQAGGSLRLSCAASGSTFVSYAMGWYRQAPGKESELVAGISWSGTRTYYADSVKGRFTISRDNAKNTVYLQMNSLKPEDTAVYYCAARDSSYNWYGYWGQGTQVTVSS”, “high polyreactivity”. The result for “QVQLVESGGGLVQAGGSLRLSCAASGSTFVTNAMVWYRQAPGKERELVAAIDYDSGSTYYADSVKGRFTISRDNAKNTVYLQMNSLIPEDTAVYYCNADEQSEEEWEYYYSYDYWGQGTQVTVSS” reads “high polyreactivity”.

Consider “QVQLVESGGGLVQAGGSLRLSCAASGSTFVTYAMGWYRQAPGKERELVAAISRSGGSTYYADSVKGRFTISRDNAKNTVYLQMNSLKPEDTAVYYCAAVIYPYYSYAHRYDYWGQGTQVTVSS”, for which the “polyreactivity (PSR sort gate)” value was “low polyreactivity”.

With “QVQLVESGGGLVQAGGSLRLSCAASGSTFVTYVMGWYRQAPGKERELVADIRRSGGSTYYADSVKGRFTISRDNAKNTVYLQMNSLKPEDTAVYYCAAYQYYYVNEVRRYYYWGQGTQVTVSS”, the “polyreactivity (PSR sort gate)” value is listed as “high polyreactivity”. For the sequence “QVQLVESGGGLVQAGGSLRLSCAASGSTFVVNAMGWYRPAPGKERELVAAIDGSDGSTYYADSVKGRFTISRDNAKNTVYFQMNSLKPEDTAVYYCAAEVLGRPDVENDYWGQGTQVTVSS”, the “polyreactivity (PSR sort gate)” value is “low polyreactivity”. In the case of “QVQLVESGGGLVQAGGSLRLSCAASGSTFVVNDMGWYRQAPGKERELVAAIRSGTSTNYADSVKGRFTISRDNAKNTVYLQMNSLKPEDTAVYYCNAAITQFAWNRYTLIYDYWGQGTQVTVSS”, the “polyreactivity (PSR sort gate)” value is given as “low polyreactivity”. Turning to “QVQLVESGGGLVQAGGSLRLSCAASGSTFVVYAMGWYRQATGKERELVAAISANVGGTYYADSVKGRFTISRDNAKNTVYLQMNSLKPEVTAVYYCAADYAYNYFWRPGDYWGQGTQVTVSS”, the “polyreactivity (PSR sort gate)” value was “low polyreactivity”. “QVQLVESGGGLVQAGGSLRLSCAASGSTFVWNAMGWSRQAPGKERQLVAAIDSGGSTNYADSVKGRFTISRDNAKNTVYLQMNSLKPEDTAVYYCATDQGYRYLKIYVYGDAFDYWGQGTQVTVSS”: the “polyreactivity (PSR sort gate)” value is “low polyreactivity”. As for “QVQLVESGGGLVQAGGSLRLSCAASGSTFVWYAMGWYRQAPGKEREFVAAITNSGGSTYYADSVKGRFTISRDNAKNTVYLQMNSLKPEDTAVDYCAKDRYYYRGAYHEYNYWGQGTQVTVSS”, the “polyreactivity (PSR sort gate)” value is recorded as “low polyreactivity”. As to “QVQLVESGGGLVQAGGSLRLSCAASGSTFVYAMAWYSQAPGKERELVAAITTGDSTYYADSVKGRFTISRDNAKNTVYLQMNSLKPEDTAVYYCAAQWYTRYGEYGYWGQGTQVTVSS”, the “polyreactivity (PSR sort gate)” value was “low polyreactivity”. The result for “QVQLVESGGGLVQAGGSLRLSCAASGSTFVYNALGWDRQAPGKERELVAAITRRGGTTYYADSVKGRFTMSRDNAKNTVYLQMNSLKQEDTAVYYCAARTRGTAYNYSGQGTQVTVSS” reads “high polyreactivity”; that for “QVQLVESGGGLVQAGGSLRLSCAASGSTFVYNAMGWSRQAPGKERELVAVITYRGGRTYYADSVKGRFTISRDNAKNTVYLQINSLKPEDTAVYYCAKRVYGSKVRGYDYWGQGTQVTVSS”, “high polyreactivity”; that for “QVQLVESGGGLVQAGGSLRLSCAASGSTFVYNAMGWYRQAPGKERELVAAITSRGGSTDYADSVKGRFTISRDNAKNTVYLQMNSLKPEYTSVYYCAADYSHTGSRYYQEGDYWGQGTQVTVSS”, “low polyreactivity”.

In the case of “QVQLVESGGGLVQAGGSLRLSCAASGSTFVYYALGWYRPSPGKERELVARITRSGGSTYYADSVKGRFTISRDNAKNTVYLQMNSLKPEDTAVYYCAAEQSVYFLVFTGVKFDYWGQGSQVTVSS”, the “polyreactivity (PSR sort gate)” value is given as “low polyreactivity”. As for “QVQLVESGGGLVQAGGSLRLSCAASGSTFVYYAMGWYRQAPGKERELVAAISRSGGNTYYADSVKGRFTISRDNAKNTVYLQMNSLKPEDTAVYYCAARSYGVQYYYWGQGTQVTVSS”, the “polyreactivity (PSR sort gate)” value was “high polyreactivity”.

“QVQLVESGGGLVQAGGSLRLSCAASGSTFVYYAMGWYRQAPGKERELVAAISWSSDSTYYADSEKGRFTISRDNAKNTVYLQMNSLKPEDTAVYYCARSDGRQSYWTDFSTDYYFWGQGTQVTVSS”: the “polyreactivity (PSR sort gate)” value is on record as “low polyreactivity”. Consider “QVQLVESGGGLVQAGGSLRLSCAASGSTFVYYAMGWYRQAPGKERELVARITRGGGSTNYADSLKARFTISRDNAKNTVYLHMNSLKPEDTAVYYCAKRRKVTYDYWGQGTQVSVSS”, for which the “polyreactivity (PSR sort gate)” value is reported as “high polyreactivity”. Consider “QVQLVESGGGLVQAGGSLRLSCAASGSTFWDYAMGWYRPAPGKERELVAAISTSGGSTYYADSVKGRFTISRDNAKNTVYLQMNSLKPEDPAVYYFAAGRVRRRVWYNYWGQGTQVTVSS”, for which the “polyreactivity (PSR sort gate)” value is “high polyreactivity”. For “QVQLVESGGGLVQAGGSLRLSCAASGSTFWFNAMGWYRQAPGKERELVAAIDSNTGSTSYADSVKGRFTISRDNAKNTVYLQMNSLIPEDTAVYYCNADYDFAKDRGDYWGQGTQVTVSS” the value was “low polyreactivity”. On to “QVQLVESGGGLVQAGGSLRLSCAASGSTFWFSAMGWYRQEPGKERELVAAITWSGGRTYYADSVKGRFTISRDNAKNTVYLQLNSLKPEDTAVYYCNKAYPQFGPLDDWGQGTQVTVSS”, for which the “polyreactivity (PSR sort gate)” value was “low polyreactivity”. For “QVQLVESGGGLVQAGGSLRLSCAASGSTFWFYAMGWYRQAPGKERELVAAITRGGSTYYADSVKGRFSISRDNAKNTVYLQMNSLKPEDTAVYYCAAEVGWSRYKWLEYWGQGTQVTVSS”, the “polyreactivity (PSR sort gate)” value is “low polyreactivity”. For the sequence “QVQLVESGGGLVQAGGSLRLSCAASGSTFWFYAMGWYRQAPGKERELVAVISNYGSTYYADSVKGRFTISRDNAKNTVYLQMNSLITEDTAVYSCNKDGGGDSYWYDYWGQGTQVTVSS”, the “polyreactivity (PSR sort gate)” value is “low polyreactivity”. For “QVQLVESGGGLVQAGGSLRLSCAASGSTFWGYAMGWYRQAPGTERELVAAITRNGGGTYYADSVKGRFTISRDNAKNTVYLQMNSLKPEDTAVYYCAATRRAYYLYGGQKMDYWGQGTQVTVSS” the value was “high polyreactivity”. For the sequence “QVQLVESGGGLVQAGGSLRLSCAASGSTFWGYTMGWYRQAPGKERELVAAITSGGSTNYADSVKGRFTISRDNAKNTVYLQMNSLKPEDTAVYYCNAVYPGRRRYRKWYIYDYWGQGTQVTVSS”, the “polyreactivity (PSR sort gate)” value is “high polyreactivity”.
